From the supplement of paper PMC10126150
± gives the standard deviation of the averaged measurements.

Test system: ATP
Test: switch fluorescence ratio, 500 uM ATP over buffer (Cy3 cluster intensity, sum of 5 cycles each) (fold (ratio)); higher = stronger signal-on switching upon ATP binding; sequences stand for … in TCGTCGGCAGCGTCAGATGTGTATAAGAGACAGTTTTTTTTTTTTTTTTTTTTTTTTT…TC
Conditions: aptamer strand: ATP DNA aptamer (quencher-CACCTGGGGGAGTATTGCGGAGGAAGG + anchor), 100 nM annealed; ATP concentration: 500 uM
Procedure, shortened: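 Switching-strand clusters labelled with Cy3 on a modified Illumina MiSeq flow-cell were annealed to 100 nM quencher-labelled ATP aptamer, imaged in selection buffer, and re-imaged after 15 min with 500 uM ATP at 22 °C. This was done over five cycles with NaOH stripping and re-annealing in between. The fluorescence ratio is summed target-cycle over summed buffer-cycle Cy3 intensity per cluster, averaged per switch-domain sequence, excluding clusters outside 100-1000 RFU.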
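Note: ATP exposure 15 min at 22 °C before imaging.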

Sequence | switch fluorescence ratio
GATACATGTG | 1.048 ± 0.0086
GATACCCATA | 0.996 ± 0.016
GATACCCTTG | 1.01 ± 0.013
GATACGATGG | 0.983 ± 0.027
GATACTGTAG | 1.09 ± 0.049
GATACTGTTG | 0.988 ± 0.027
GATAGAAGGT | 1.04 ± 0.056
GATAGATGGC | 0.989 ± 0.039
GATAGATTTA | 0.9977 ± 0.0033
GATAGCCAAT | 1.02 ± 0.016
GATAGGAGGA | 1 ± 0.027
GATAGGGTTT | 1.06 ± 0.076
GATAGGTTCG | 0.983 ± 0.016
GATAGTAATG | 1.01 ± 0.018
GATAGTACGG | 1.01 ± 0.015
GATAGTATTT | 1.005 ± 0.0066
GATAGTGAAT | 0.962 ± 0.028
GATAGTGAGA | 1.03 ± 0.011
GATAGTGAGG | 0.9935 ± 0.0021
GATAGTGAGT | 0.988 ± 0.016
GATAGTGCTG | 1.05 ± 0.12
GATAGTGGCA | 1.03 ± 0.023

Sequence | switch fluorescence ratio
GATAGTGTTG | 0.992 ± 0.041
GATAGTTGGT | 1 ± 0.021
GATATACTTT | 0.99 ± 0.027
GATATATCAG | 0.9771 ± 0.0017
GATATGAGCG | 1.002 ± 0.0018
GATATGATAC | 1.077 ± 0.008
GATATGCCTG | 1.01 ± 0.069
GATATGTGGA | 0.995 ± 0.032
GATATTAAGC | 1.01 ± 0.026
GATATTAATT | 0.9784 ± 0.0031
GATATTAGGC | 0.9858 ± 0.009
GATATTATTC | 1.05 ± 0.079
GATATTGGTG | 1.024 ± 0.003
GATATTTGGT | 0.989 ± 0.048
GATATTTTTT | 0.989 ± 0.012
GATCAATGGG | 0.997 ± 0.036
GATCAGATGT | 0.958 ± 0.048
GATCAGCCCC | 1.02 ± 0.031
GATCAGTTTT | 0.977 ± 0.016
GATCATAATA | 0.995 ± 0.043
GATCATCGGG | 0.995 ± 0.015
GATCATGTAC | 1.14 ± 0.036

Sequence | switch fluorescence ratio
GATCATGTTT | 0.98194 ± 0.00037
GATCATTCTG | 0.966 ± 0.036
GATCCAAGGG | 1.01 ± 0.021
GATCCACGTG | 1.03 ± 0.015
GATCCCCCCC | 1.06 ± 0.03
GATCCGAGAC | 1.516 ± 0.0088
GATCCGGCGT | 1.03 ± 0.053
GATCCTTGGG | 1.022 ± 0.0056
GATCGACTTT | 0.958 ± 0.012
GATCGAGGGA | 1.04 ± 0.14
GATCGAGTTA | 1.034 ± 0.0073
GATCGGCGCG | 0.986 ± 0.025
GATCGGGGTT | 0.994 ± 0.036
GATCGGTAAA | 0.999 ± 0.013
GATCGTAATT | 1.06 ± 0.0044
GATCGTCTGC | 0.925 ± 0.035
GATCTATGTC | 0.989 ± 0.066
GATCTATGTG | 1.01 ± 0.042
GATCTATGTT | 0.996 ± 0.018
GATCTGAACT | 1 ± 0.059
GATCTGCACG | 0.9947 ± 0.0032
GATCTGTCAG | 1.01 ± 0.021

Sequence | switch fluorescence ratio
GATCTTGCCT | 1.02 ± 0.026
GATGAAAGTG | 0.99 ± 0.025
GATGAACGTT | 0.984 ± 0.041
GATGAAGGTG | 1.28 ± 0.061
GATGAAGTTG | 0.971 ± 0.029
GATGAGCCTA | 1.01 ± 0.073
GATGAGGGCG | 1.14 ± 0.23
GATGAGGGGG | 1.03 ± 0.09
GATGAGTATA | 1 ± 0.021
GATGAGTGTG | 0.964 ± 0.041
GATGATATGG | 0.9852 ± 0.0039
GATGATCTTT | 0.966 ± 0.014
GATGATTTGG | 1.02 ± 0.021
GATGATTTTG | 0.979 ± 0.047
GATGCAAAGG | 1.131 ± 0.011
GATGCAGTGT | 1.05 ± 0.014
GATGCAGTTT | 1.03 ± 0.019
GATGCGAAAT | 1.06 ± 0.023
GATGCGCGTG | 1 ± 0.019
